Data set [1] addresses T1, conarachin (undenatured) (Arachis hypogaea) (UniProt P43238).
T1 sequence: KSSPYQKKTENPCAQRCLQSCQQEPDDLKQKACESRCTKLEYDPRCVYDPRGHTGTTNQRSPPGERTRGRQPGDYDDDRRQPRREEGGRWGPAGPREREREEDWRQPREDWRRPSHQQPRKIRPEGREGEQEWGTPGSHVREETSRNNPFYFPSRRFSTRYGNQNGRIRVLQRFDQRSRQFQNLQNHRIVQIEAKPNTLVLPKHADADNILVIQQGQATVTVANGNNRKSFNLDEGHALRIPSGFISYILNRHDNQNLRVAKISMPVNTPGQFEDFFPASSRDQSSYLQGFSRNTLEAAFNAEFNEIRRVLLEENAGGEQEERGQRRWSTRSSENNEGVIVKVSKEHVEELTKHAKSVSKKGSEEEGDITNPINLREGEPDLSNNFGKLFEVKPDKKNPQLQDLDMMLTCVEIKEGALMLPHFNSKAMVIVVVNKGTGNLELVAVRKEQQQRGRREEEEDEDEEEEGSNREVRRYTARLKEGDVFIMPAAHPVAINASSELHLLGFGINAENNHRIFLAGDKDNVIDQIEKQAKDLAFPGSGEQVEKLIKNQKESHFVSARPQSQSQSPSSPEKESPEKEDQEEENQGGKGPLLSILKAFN
In words: SPR. The settings on record: all T replaced by 5-tryptaminocarbonyl-dU (TrpdU); printed as P_M_NES01 in table; same SPR buffer.

The target of data set [2] is beta-conglycinin (heat-denatured, boiled 10 min) (Glycine max, UniProt P0DO16;P11827;P25974 P0DO16:63-605,P11827:63-621,P25974:24-439). In words: SPR; little binding, 18.75-300 nM. The conditions noted are these: tags: Sigma C5868-5GM. The protocol: (§1) Biotinylated poly(dT) at 5 μmol/L was injected to a flow cell of the sensor chip using ultrapure water (DDW), and the binding was allowed to proceed until the signal intensity (RU: Resonance Unit) reached about 900 RU. The biotinylated poly(dT) was prepared by biotinylating the 5′ end of 24-mer deoxythymidine. Then, the poly(dA)-added aptamer at 1 μmol/L was injected to the flow cell of the chip using an SPR buffer at a flow rate of 25 μL/min for 80 seconds, and the binding was allowed to proceed until the signal intensity reached about 800 RU. […] Subsequently, the sample was injected using the SPR buffer at a flow rate of 50 μL/min for 120 seconds, followed by washing performed by flowing the SPR buffer under the same conditions. Signal intensity measurement was performed concurrently with the injection of the sample and the washing with the SPR buffer.
As soybean allergen samples, undenatured β-conglycinin, heat-denatured β-conglycinin, undenatured soybean proteins, and heat-denatured soybean proteins were provided. A commercially available product (Sigma, trade name β-conglycinin from Glycine max (soybean), C5868-5GM) was used as the undenatured β-conglycinin. The heat-denatured β-conglycinin was prepared by boiling the undenatured β-conglycinin for 10 minutes and then collecting a supernatant fraction. As the undenatured soybean proteins and the heat-denatured soybean proteins, the undenatured soybean sample and the heat-denatured soybean sample in Example 1 were used.
(§2) The concentrations of the β-conglycinin were set to 18.75, 37.5, 75, 150, and 300 nmol/L, and the protein concentrations in the soybean samples were set to 1, 3, 10, 30, and 100 ppm. The SPR analysis was performed in the same manner as in Example 1, except that these samples were used. Then, from the results of the above-described SPR analysis, the relative binding value was determined regarding the proteins in each peanut sample bound to the aptamer immobilized on the chip.

Data set [3] addresses T2, conarachin (undenatured) (Arachis hypogaea, UniProt P43238 P43238:26-626).
T2 sequence: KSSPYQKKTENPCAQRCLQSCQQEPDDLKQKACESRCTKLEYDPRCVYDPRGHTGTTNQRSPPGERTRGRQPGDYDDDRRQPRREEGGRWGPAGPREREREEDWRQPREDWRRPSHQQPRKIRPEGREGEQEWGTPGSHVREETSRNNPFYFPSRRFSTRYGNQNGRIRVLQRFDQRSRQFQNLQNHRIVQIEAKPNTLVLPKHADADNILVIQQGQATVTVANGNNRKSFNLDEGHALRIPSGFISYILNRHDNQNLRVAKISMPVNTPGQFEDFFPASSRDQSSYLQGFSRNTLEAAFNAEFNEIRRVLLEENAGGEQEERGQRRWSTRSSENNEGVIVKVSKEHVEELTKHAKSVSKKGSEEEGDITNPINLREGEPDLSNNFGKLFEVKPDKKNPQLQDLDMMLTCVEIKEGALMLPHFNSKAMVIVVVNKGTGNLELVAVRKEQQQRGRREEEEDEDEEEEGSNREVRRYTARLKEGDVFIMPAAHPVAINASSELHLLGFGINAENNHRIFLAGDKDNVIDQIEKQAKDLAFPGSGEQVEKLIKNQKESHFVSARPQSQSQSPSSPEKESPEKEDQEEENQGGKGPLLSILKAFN
The data set can be described thus: SPR; 40 mM HEPES pH 7.5, 125 mM NaCl, 5 mM KCl, 1 mM MgCl2, 0.05% Tween 20. The conditions noted are these: tags: COSMO BIO CSB-CSB-NP003601PL. The protocol:
(§3) First, as a sensor chip designed specifically for the ProteON, a streptavidin-immobilized chip (trade name: ProteOn NLC Sensor Chip, BioRad) was set in the ProteON XPR36. Biotinylated poly(dT) at 5 μmol/L was injected to a flow cell of the sensor chip using ultrapure water (DDW), and the binding was allowed to proceed until the signal intensity (RU: Resonance Unit) reached about 900 RU. The biotinylated poly(dT) was prepared by biotinylating the 5′ end of 24-mer deoxythymidine. Then, the poly(dA)-added aptamer at 1 μmol/L was injected to the flow cell of the chip using an SPR buffer at a flow rate of 25 μL/min for 80 seconds, and the binding was allowed to proceed until the signal intensity reached about 800 RU. […]
(§4) Samples were prepared by adjusting commercially available peanut allergen conarachin (COSMO BIO, CSB-CSB-NP003601PL, Arachis hypogaea seed, Native) to 50 nmol/L, 25 nmol/L, 12.5 nmol/L, 6.25 nmol/L, and 3.125 nmol/L. The conarachin is a undenatured protein, and the conarachin generally accounts for about 17% of the total amount of peanut proteins in a peanut. The SPR analysis was carried out in the same manner as in Example 1, and the kinetic parameter was calculated from the results of the analysis.

The target of data set [4] is T3, beta-conglycinin (undenatured) (Glycine max, UniProt P0DO16;P11827;P25974 P0DO16:63-605,P11827:63-621,P25974:24-439). The data set can be described thus: SPR; little binding, 18.75-300 nM. The conditions noted are these: tags: Sigma C5868-5GM. The protocol: as §1, with “First, as a sensor chip designed specifically for the ProteON, a streptavidin-immobilized chip (trade name: ProteOn NLC Sensor Chip, BioRad) was set in the ProteON XPR36. Biotinylated” for “Biotinylated”
as §2, with “chip. The relative binding value was calculated as the ratio of the protein binding measured value to the aptamer immobilization measured value (the protein binding measured value/the aptamer immobilization measured value).” for “chip.”

The target of data set [5] is T4, Ara h1 (heat-denatured, purified from parboiled peanut) (Arachis hypogaea, UniProt P43238 P43238:26-626).
T4 sequence: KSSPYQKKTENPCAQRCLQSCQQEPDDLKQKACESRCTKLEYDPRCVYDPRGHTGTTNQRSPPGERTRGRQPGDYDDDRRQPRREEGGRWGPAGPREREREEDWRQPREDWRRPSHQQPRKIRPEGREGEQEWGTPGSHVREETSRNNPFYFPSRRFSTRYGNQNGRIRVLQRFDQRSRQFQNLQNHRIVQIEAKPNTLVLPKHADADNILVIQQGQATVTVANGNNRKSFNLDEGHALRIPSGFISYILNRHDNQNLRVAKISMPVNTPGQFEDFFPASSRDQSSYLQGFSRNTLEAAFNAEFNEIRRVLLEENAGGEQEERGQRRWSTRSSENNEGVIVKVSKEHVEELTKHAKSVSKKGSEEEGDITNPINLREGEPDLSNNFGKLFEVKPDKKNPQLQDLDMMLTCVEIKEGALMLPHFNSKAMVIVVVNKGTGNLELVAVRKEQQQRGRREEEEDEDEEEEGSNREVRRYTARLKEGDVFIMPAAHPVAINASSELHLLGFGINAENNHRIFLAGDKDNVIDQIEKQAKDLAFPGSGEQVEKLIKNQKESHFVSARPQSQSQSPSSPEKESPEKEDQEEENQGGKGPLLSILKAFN
The data set can be described thus: SPR; 40 mM HEPES pH 7.5, 125 mM NaCl, 5 mM KCl, 1 mM MgCl2, 0.05% Tween 20. The conditions noted are these: tags: INDOOR biotechnologies NA-AH1-1. The protocol: as §1, with “First, as a sensor chip designed specifically for the ProteON, a streptavidin-immobilized chip (trade name: ProteOn NLC Sensor Chip, BioRad) was set in the ProteON XPR36. Biotinylated” for “Biotinylated”
Samples were prepared by adjusting commercially available peanut allergen Ara h1 (INDOOR biotechnologies, #NA-AH1-1, Blanched peanut, crushed [Runner cultivar]) to 50 nmol/L, 25 nmol/L, 12.5 nmol/L, and 6.25 nmol/L. The Ara h1, which is purified from parboiled peanuts, is a heat-denatured protein. The SPR analysis was carried out in the same manner as in Example 1, and the kinetic parameter was calculated from the results of the analysis.
(In general: In SPR one partner is held on a chip, and binding of the other changes the refractive index at the surface.)

For data set [6], the target named is T3, beta-conglycinin (undenatured). The data set can be described thus: SPR; little binding. The settings on record: tags: Sigma C5868-5GM. Here is the method: as §1, with “First, as a sensor chip designed specifically for the ProteON, a streptavidin-immobilized chip (trade name: ProteOn NLC Sensor Chip, BioRad) was set in the ProteON XPR36. Biotinylated” for “Biotinylated”
(§5) Except that the following eight types of aptamers were used as pyrimidine-rich aptamers, the binding forces to Ara h1, heat-denatured peanut proteins, undenatured β-conglycinin, and heat-denatured soybean proteins were examined by SPR in the same manner as in the above-described examples.

Data set [7] has as its target T4, Ara h1 (heat-denatured, purified from …). The data set can be described thus: SPR; very high binding. The conditions noted are these: tags: INDOOR biotechnologies NA-AH1-1. Here is the method:
as §1, with “First, as a sensor chip designed specifically for the ProteON, a streptavidin-immobilized chip (trade name: ProteOn NLC Sensor Chip, BioRad) was set in the ProteON XPR36. Biotinylated” for “Biotinylated”
as §5

The target in data set [8] is T2, conarachin (undenatured). The data set can be described thus: SPR; same SPR buffer. The conditions noted are these: tags: COSMO BIO CSB-CSB-NP003601PL. The protocol:
as §3, §4

T3 sequence (P0DO16 63-605, chain 1 of 3): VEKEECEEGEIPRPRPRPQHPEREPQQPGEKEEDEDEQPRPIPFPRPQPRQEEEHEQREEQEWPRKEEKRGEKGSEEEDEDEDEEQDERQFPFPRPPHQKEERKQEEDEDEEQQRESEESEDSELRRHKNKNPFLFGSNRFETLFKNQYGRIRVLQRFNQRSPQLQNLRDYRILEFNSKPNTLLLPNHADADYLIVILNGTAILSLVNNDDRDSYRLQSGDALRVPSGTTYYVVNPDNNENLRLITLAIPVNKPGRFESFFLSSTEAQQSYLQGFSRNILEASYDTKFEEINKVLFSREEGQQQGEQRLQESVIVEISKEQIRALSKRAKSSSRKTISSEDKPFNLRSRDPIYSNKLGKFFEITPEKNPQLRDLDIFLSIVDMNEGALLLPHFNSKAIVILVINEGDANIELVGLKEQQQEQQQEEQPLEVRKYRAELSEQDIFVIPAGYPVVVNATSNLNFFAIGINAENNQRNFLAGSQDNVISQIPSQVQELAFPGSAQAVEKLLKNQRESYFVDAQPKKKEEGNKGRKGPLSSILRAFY
T3 sequence (P11827 63-621, chain 2 of 3): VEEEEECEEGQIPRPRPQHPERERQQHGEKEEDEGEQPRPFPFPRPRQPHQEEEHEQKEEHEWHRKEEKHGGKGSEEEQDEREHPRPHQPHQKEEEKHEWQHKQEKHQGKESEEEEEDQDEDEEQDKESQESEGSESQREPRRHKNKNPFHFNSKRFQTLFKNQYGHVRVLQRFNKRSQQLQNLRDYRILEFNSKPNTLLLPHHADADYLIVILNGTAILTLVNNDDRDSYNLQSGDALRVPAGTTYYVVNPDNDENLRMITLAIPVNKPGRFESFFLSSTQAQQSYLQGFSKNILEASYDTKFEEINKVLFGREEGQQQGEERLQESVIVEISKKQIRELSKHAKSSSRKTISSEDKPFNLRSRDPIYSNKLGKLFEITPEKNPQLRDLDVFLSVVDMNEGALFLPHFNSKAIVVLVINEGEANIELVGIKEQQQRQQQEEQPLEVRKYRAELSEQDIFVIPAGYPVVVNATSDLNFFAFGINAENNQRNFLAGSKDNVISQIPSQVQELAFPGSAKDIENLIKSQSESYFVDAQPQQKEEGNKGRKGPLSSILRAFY
T3 sequence (P25974 24-439, chain 3 of 3): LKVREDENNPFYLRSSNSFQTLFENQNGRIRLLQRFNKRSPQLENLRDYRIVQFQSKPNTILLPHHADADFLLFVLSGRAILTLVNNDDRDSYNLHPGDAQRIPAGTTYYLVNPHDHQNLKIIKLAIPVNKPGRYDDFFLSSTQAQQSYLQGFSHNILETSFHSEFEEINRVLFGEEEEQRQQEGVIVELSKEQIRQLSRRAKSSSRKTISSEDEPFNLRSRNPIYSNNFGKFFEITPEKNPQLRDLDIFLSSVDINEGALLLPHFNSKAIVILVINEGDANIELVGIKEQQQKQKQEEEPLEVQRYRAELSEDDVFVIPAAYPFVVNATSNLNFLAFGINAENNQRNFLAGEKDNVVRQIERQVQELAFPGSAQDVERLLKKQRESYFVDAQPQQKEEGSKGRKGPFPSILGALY
beta-conglycinin (heat-denatured, boiled 10 min), sequence (P0DO16 63-605, chain 1 of 3): as the sequence (P0DO16 63-605, chain 1 of 3) above
beta-conglycinin (heat-denatured, boiled 10 min), sequence (P11827 63-621, chain 2 of 3): as the sequence (P11827 63-621, chain 2 of 3) above
beta-conglycinin (heat-denatured, boiled 10 min), sequence (P25974 24-439, chain 3 of 3): as the sequence (P25974 24-439, chain 3 of 3) above

As usually defined, the Kd is the constant that tells how readily two partners part at equilibrium. Low values mean tighter binding, high ones weaker binding. Turning to “GGATTCCGTGCCGTGCTAAAGGCCTCCCCGTTTATAGGCAGGTATCCGGCAGACTACTGGGCTTGCGACAAATGAAAAAAAAAAAAAAAAAAAAAAAA [P_NES_M01 (CONA170TEDAR2R8m1)]”, the Kd in data set [1] was determined as 0.0388 nM.

Consider CCCGCCTGTATTCCTGTCCAAAAAAAAAAAAAAAAAAAAAAAA (ssDNA) [P_NES01 (NAH1128R7Am2s19G)], for which the binding result in data set [2] and in data set [4] was “no binding” throughout. Further, the Kd with conarachin (undenatured) [3] was 0.259 nM.

As for GTTTTCTAGGCCAATCTGATCAACAAAAAAAAAAAAAAAAAAAAAAAA (ssDNA) [P_NES04 (CONA171NNHR2R8m2s24)], binding in data set [5] was put at a Kd of 0.141 nM. For the same molecule, the binding result in data set [2] and in data set [4] was “no binding” in each case.

For CTCTCTCTCCCCCCCCCCCTCTCTCAAAAAAAAAAAAAAAAAAAAAAAA (ssDNA) [CT25_C11], the results for the binding result in data set [6] and in data set [7] were “no binding” and “binds”, respectively.

For the molecule CTCTCTCTCTCCCCCCCTCTCTCTCAAAAAAAAAAAAAAAAAAAAAAAA (ssDNA) [CT25_C7], the binding result in data set [6] is “no binding”; in data set [7], “binds”.

In the case of CTCTCTCTCTCTCCCTCTCTCTCTCAAAAAAAAAAAAAAAAAAAAAAAA (ssDNA) [CT25_C3 (Pyrimidine rich)], the binding result in data set [2] and in data set [4] was “no binding” each time. Besides, the Kd in the data set with conarachin (undenatured) [8] amounted to 0.28 nM.

For CTCTCTCTCTCTCTCTCTCTCTCTCAAAAAAAAAAAAAAAAAAAAAAAA (ssDNA) [CT25_C0], the results for the binding result in data set [6] and in data set [7] were “no binding” and “binds”, respectively.

For the molecule CACACACACCCCCCCCCCCACACACAAAAAAAAAAAAAAAAAAAAAAAAA (ssDNA) [CA25_C11], the binding result in data set [6] is “no binding”; in data set [7], “binds”.

Take CACACACACACACCCACACACACACAAAAAAAAAAAAAAAAAAAAAAAAA (ssDNA) [CA25_C3]: the binding result in data set [6] is “no binding”; in data set [7] it was “binds”.

On to CACACACACACCCCCCCACACACACAAAAAAAAAAAAAAAAAAAAAAAAA (ssDNA) [CA25_C7], for which the values for the binding result in data set [6] and in data set [7] were “no binding” and “binds”, respectively.

Turning to CACACACACACACACACACACACACAAAAAAAAAAAAAAAAAAAAAAAAA (ssDNA) [CA25_C0], the binding result was “no binding” in data set [6] and “binds” in data set [7].

B1: P_NES03 (CONA161R2R8m1s32) (ssDNA)
DNA: GTTCGTGGTGTGTTGTGTGTGATTCCAGGGACAAAAAAAAAAAAAAAAAAAAAAAA
B1 showed a Kd in data set [5] of 0.173 nM. Further, the binding result in data set [2] and in data set [4] was “no binding” in each case.

Take TTTTTTTTTTTTTTTTTTTTAAAAAAAAAAAAAAAAAAAAAAAA (ssDNA) [PolydT20]: the Kd in data set [5] came to 0.19 nM; in the data set with conarachin (undenatured) [8], 0.263 nM. The binding result in data set [2] and in data set [4] was “no binding” each time.

For the origin of these results see US20160298117, “PEANUT-BINDING NUCLEIC ACID MOLECULE AND USE THEREOF” (NEC Solution Innovators, Ltd., published 2016).
